Measurements reported in CN1800373A (RADIOLOGY INST OF PLA MILITARY, dated 2006).

Key:
[1] = molecular target: VEGFR-3/Ig重组蛋白 (R&D research system corp.) (human) (UniProt P35916); assay: ELISA, coated VEGFR-3/Fc 0.5 μg/mL, negative control
[2] = molecular target: 正常人IgG (北京中杉金桥有限公司); assay: ELISA, coated normal human IgG 0.5 μg/mL, negative control
[3] = molecular target: VEGFR-3/Ig重组蛋白 (R&D research system corp.) (human) (UniProt P35916); assay: ELISA, coated VEGFR-3/Fc 0.5 μg/mL, scFv at 6.5 μg/mL
[4] = molecular target: VEGFR-3/Ig重组蛋白 (R&D research system corp.) (human) (UniProt P35916); assay: ELISA, coated VEGFR-3/Fc 0.5 μg/mL, scFv at 13 μg/mL
[5] = molecular target: VEGFR-3/Ig重组蛋白 (R&D research system corp.) (human) (UniProt P35916); assay: ELISA, coated VEGFR-3/Fc 0.5 μg/mL, scFv at 65 μg/mL
[6] = molecular target: VEGFR-3/Ig重组蛋白 (R&D research system corp.) (human) (UniProt P35916); assay: ELISA, coated VEGFR-3/Fc 0.5 μg/mL, supernatant of hybridoma BDD073
[7] = molecular target: T1, HEL细胞表面表达的VEGFR-3 (human, UniProt P35916 25-1363); assay: Western blot of HEL cell lysate (Fig. 4)
T1 construct: whole, on cells; On whole HEL cells in flow cytometry; in HEL cell lysate in the immunoblot; also called VEGFR-3多肽 (175kDa, 125kDa bands of HEL lysate)

[8] = molecular target: T2, VEGFR-3/Ig重组蛋白 (R&D research system corp.) (human, UniProt P35916 25-776); assay: ELISA-type assay, OD450; VEGFR-3/Fc 1 and 2 μg/mL mixed with 20 μg/mL GST-VEGF-D (Fig. 1)
T2 construct: Bought protein; also called VEGFR-3/Fc; VEGFR-3/IgG; not shown: Ig/Fc part of the bought fusion
T2 sequence (looked up): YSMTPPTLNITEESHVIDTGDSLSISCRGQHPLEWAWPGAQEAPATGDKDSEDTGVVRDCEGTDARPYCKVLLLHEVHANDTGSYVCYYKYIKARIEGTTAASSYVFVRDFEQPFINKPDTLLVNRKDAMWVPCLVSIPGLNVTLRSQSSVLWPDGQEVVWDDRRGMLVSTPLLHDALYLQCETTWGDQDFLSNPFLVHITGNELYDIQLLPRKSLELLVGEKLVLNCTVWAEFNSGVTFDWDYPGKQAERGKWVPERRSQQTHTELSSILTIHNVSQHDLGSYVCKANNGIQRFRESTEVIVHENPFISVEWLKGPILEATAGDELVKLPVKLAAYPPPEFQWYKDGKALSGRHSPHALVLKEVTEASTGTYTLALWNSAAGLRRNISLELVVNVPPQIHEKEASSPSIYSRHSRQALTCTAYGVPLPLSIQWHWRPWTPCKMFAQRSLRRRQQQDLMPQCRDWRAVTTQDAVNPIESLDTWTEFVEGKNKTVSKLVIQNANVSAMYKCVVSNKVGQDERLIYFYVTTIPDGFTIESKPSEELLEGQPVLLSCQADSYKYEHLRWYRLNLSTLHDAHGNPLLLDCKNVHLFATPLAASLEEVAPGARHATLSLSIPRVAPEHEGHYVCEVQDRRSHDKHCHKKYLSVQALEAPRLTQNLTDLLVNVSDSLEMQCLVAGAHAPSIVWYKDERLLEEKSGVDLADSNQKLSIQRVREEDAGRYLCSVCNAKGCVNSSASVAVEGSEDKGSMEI

正常鼠血清(1∶1000) gave an OD 450 [1] of 0.05 OD450 and an OD 450 [2] of 0.064 OD450.

B1: 可溶性抗VEGFR-3单链抗体VL-linker-VH (scFv, not shown: large carriers)
scFv: DIVLTQSPASLAVSLGQRATISCRASKSVSTFGYSYMHWYQQKPGQPPKLLIYLASNLESGVPARFSGSGSGTDFTLNIHPVEEEDAATYYCQHSRELMYTFGGGTKLEIKRGGGGSGGGGSGGSQVQLQESGGGLVRPRGSLKLSCAASGFTFNTYAMNWVRQAPGKGLEWIARIRNKSNNYATYYANSVKDRFTISRGDSQSMLYLQMNNLKTEDTAMYYCVRDGYSLVHWGHGTLVTVS
B1 was tested, and the OD 450 [3] was 0.515 OD450, the OD 450 [4] was 0.73 OD450 and the OD 450 [5] was 1.01 OD450.

B2: 抗人VEGFR-3的单克隆抗体ABDD073 (antibody, mouse IgG2a, V domains shown)
VH: QVQLQESGGGLVRPRGSLKLSCAASGFTFNTYAMNWVRQAPGKGLEWIARIRNKSNNYATYYANSVKDRFTISRGDSQSMLYLQMNNLKTEDTAMYYCVRDGYSLVHWGHGTLVTVS
VL: DIVLTQSPASLAVSLGQRATISCRASKSVSTFGYSYMHWYQQKPGQPPKLLIYLASNLESGVPARFSGSGSGTDFTLNIHPVEEEDAATYYCQHSRELMYTFGGGTKLEIKR
notes: The 132-residue entry was amplified with a primer that starts at ATG, so it may hold a leader; also called BDD073上清; monoclonal antibody of hybridoma BDD073 CGMCC No.1537
For B2, the OD 450 [6] was 0.889 OD450 and the binding result [7] was “binds”.

B3: 重组人GST-VEGF-D (ligand, human, UniProt O43915 89-205, looked up)
chain: FAATFYDIETLKVIDEEWQRTQCSPRETCVEVASELGKSTNTFFKPPCVNVFRCGGCCNEESLICMNTSTSYISKQLFEISVPLTSVPELVPVKVANHTGCKCLPTAPRHPYSIIRR
notes: domain: VHD; Expressed in E. coli BL21(DE3), 38 kD, purified on a GST column; not shown: GST tag encoded by vector pGEX-5X-1 (Amersham)
B3: binds [8].
